According to the domain aggregation screens of Martell et al. (2025):

assay: soluble fraction after stress (log2 fold change); higher = more stays soluble; pooled small domains, quantitative proteomics; details: stress: 50 degC
In short: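 The measure of aggregation propensity here is the base-two logarithm of the fold change in the soluble amount of each protein after stress. A higher value means more of that protein stays in solution. Stress was applied at 50°C to pooled libraries of small protein domains, read out by high-throughput quantitative proteomics.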

Sequence | soluble fraction (log2)
HMVHSEDLQDHKYVSQLGEVFLKENPNYENIKKSWGDHMVVIKKFGRYPHRNKILNRKSTPEELEFLKG | -0.0131
HMVILPGEKMVVKIVQPGKEKGQGVGYLADGTMIVVDSGDKMIGQDVPTEITRVFQTVAGKMLFAVPVD | -0.426
HMVIMDLIVNGEPKYVVGEQLHLILDELGYSGKHFVVELNGEILSKEAYTTTKLTAADRLEIVSFVGG | -3.5
HMVITATYTDFMDALEADEVKQVQFSSTEINYTIEKGGHVQYFKTGVVDNPQLPQILREKGVTYAAEIP | -0.0375
HMVITDPFFLEPENLVKDAVALMEKYRISGVPITKKGKLVGILTNRDLRFESNYEQPIANVMS | -0.0305
HMVITISEADVSGTYTKSITQGDWKYIRTWTPFEDERLYDLAKDPMELRDLAPAAPSKLAELRELLSALVS | -1.51
HMVIVMRKDADAASIEKVVSEVKSRGFMPHVSEGESRTLIGAIGPAPTEELREHFAGLAGVETVVRITK | 0.113
HMVKDIEFSLPLEQDYYKVLISVKDSQGKRQVYEELHRAGDTVYAAVRYYGSGELEIHLNGKFYKTIK | -0.521
HMVKDLEIETIRLNNLLASDAEEVLKSLGGAKPTYKAVAVPGSNSLVIEGTKADLIKLKSIINALEDGS | 0.0941
HMVKETNYSFFLKQIDAGTVEQVQIEDTEIKFKVSTADGKEQVYSTVRVEDPDLVDRLYSKGNIDFTGN | -0.0595
HMVKIIHYEVYANRGDGWKLVDQFSADQRQEAVNLAKEIETEDQVAVKIIREIFDVQDNTYQESVEYIG | -0.51
HMVKLDDLTGQDKATAEATITNSGLKYSEQQEFSDEVEAGKVIRTDPGAGTSSLKAGDTVTVYVSRGPEN | -0.0778
HMVKNYYEILEVDKKASPEVIEKAYKTLAKKYHPDLQEAENNGQYEEKMKEINEAYSVLSDEFKRRTYDEQ | 0.114
HMVKSYEVPDVSNLTVLEAEAKLQEMGFEIDEEQKEISSSDIESGRVVKTSPQAGSKRKEGAIITLYVSSG | 0.163
HMVKTANVAYSEFLKLVESDNISDVSIVGRTITGHLDDGTKFSTYTPPNDPSLIDKLTRKNVIIKSAPE | -0.00389
HMVKVEVKPNVLQWVIKRMDNFDRLKDQFPNIDKWINQESQPTLKQLEKLAKMTAVPLGYFFLPNPPEEK | -0.183
HMVLELRIGQIVRGVLLQLVGEREGIVSVGGVPVRARLEAEIPLGRGVMLQVQPGSDANNILLKPV | -0.515
HMVLENLKKFIDSKGISVSAFEKSIGMSNNSFRKSLNSGGHIGSDKLENILKIYPELNPVWLLQGEGEML | -0.27
HMVLGSSVAMGQKIGDSDLTWVEVPLSSAFDRFLSEPEWRGSSDLVAARLLEAGVFLTEDDVVE | 0.0949
HMVLLGAAIRELRIQKGITIEELAEMSGLSTGLISKIERDLGNPSISSLRKISRALGVPTAFFFA | -3.07
HMVLSKGAKELLDFIMREGEVTTSKVVQKFGGSAQNASAKLKKLYATGLILGSKAVAESGGLEFVYKA | 0.393
HMVLSVRERMGIVLEKVNTETFTDFKELFTVEEGRAGAIVSLLAILQLMKDSLIQLVQNEPNGPIYVKAA | -0.673
HMVLTSFHDNFPKTGTTYTVRSGDTISGIATKFGSTRDWIQNANEISHPKYLQVGRTLFIPH | -0.203

Sequence | soluble fraction (log2)
HMVMATPHNTAKAGDIAKTVIMPGDPLRAKYIADNYLDNAVQFNVVRNIYGYTGVYRGTDISVMASGM | 0.128
HMVMETLAERINTALQTKGLSVNALARRVGVSYPAMRKITKGETLNPKFLFEIAEALGVSVEWLKTGEGSP | -0.372
HMVMNKQEFLKILRDTLQSQLSSRETENHVEYYRTYIEEQMREGKTEIEILDVLGDPRLIARTILET | -0.0725
HMVMSTDAELILEYLAKHQGEMEITDKSSPELIMDTFNMSKGAFKRALGSLYKSKTVVIESTKVLLNT | -1.44
HMVNDQSIYASEGYVHIRSGKPVSLRIYTILGALYRHEERLVGDHVIALPRGLYIVVLNHTAKKIMV | -1.01
HMVNEALDEFFVGLKNLYESATGKPAIAGAHFDGEPKTDFEKLMYLGYQIIRPAQAYPSALKAYERAIARS | -0.173
HMVNHEERKRLIAEATWRTISHVGIEQASVRTIAKEAGLSLGALRYYFTTQEELLRFSMQLVQERV | -0.0983
HMVNIEAEVGRRLRQLRARRGLSLRALADLSGLNVNTLSLIENSKTSPSVSTLQQLARSLQVPITTFFESD | -0.447
HMVNKQERTYTILRDRIHSGSFAPLERLNIDALARELGVSPIPVREALRRLEAEGWVRFTPNVGAVVSP | -0.165
HMVNLLVTPLEELEINFRTLRALRKYNIYQLEDLLRFIKYNGFDALRIVPGMGIKSTEQLYEKLKDKNI | -0.236
HMVNTVEVQGNTIYSAEEIRSASGIQKGDNLFTLNKEAAAGSIKASLPYVETVSIIRFLPDKIVIEVKE | -0.473
HMVNVLKNSTVIDLVKNNLSDALIISLIRRAKVDFSLMTDDVIELSGKGVSPAVIMEMRQAMIRQASEIQN | -0.145
HMVNVTEAIDLENGTGKLSGTFNHEPKSAEEIIFLLKIDTNKWKLSQYWNKQMGDHWRVSALISQI | -1.91
HMVPAMEVALEDARRAIEQVVSGERTSVQLSSQEAMIRKLQHQMAKDANLFSRSSGVEPQRRVTIYTN | 0.0136
HMVPHQPRVWTNTAGKTITAAFVRFNAAGRKVSLKLEKGRQVELPLASLSGNDVDWIKEHVPEAMSNQE | -0.142
HMVPISGADFEKLSDYILQKAGAGSIQVKELLAGLKGMHEKNLWKAIDYLLAEEKIRIDKGGNISVK | -0.00539
HMVPQAVQDIKAYLASGALPYIGPATAKKIVAMFGSDALDVIAEHPEQLTAIRGLNEEKANAIHQEFRRQF | -0.0649
HMVPSSHNIAQKVKQIKINDLWLDVRERYIYLKNLYLSHPLEKDHPSFIVYVEAVNQIYNQYF | 0.02
HMVQDDLRELEGISTELLAKLADAGITNRDDLADLAIDELVAITGQSEDDAKALIMKAREHWFAGDA | -0.0273
HMVQIIQLQGTDKRLYELVAPLVMNPEILKQNYNYPFRTSEDFVWFVAVDKKKVIGFIPVEEKKKEYVI | -0.0678
HMVRKGEINFDQLSVRARNALRNMNILFEKEILKLTEYDLKSIPNLGVKTTNELLSYIKRLQTNQKEE | -0.191
HMVRRSERLHALTESLRRSGNRGRTAEQLATEFEVSVRTIKRDLVALEASGLPLWSRPGPGGGYGLLS | -1.02
HMVRTIKILGIKHNINLYYKNVKVPTMNVKNQTLEIILPNKYKKFQEEQILKVLTQKLYDKIAETEIEKIK | -0.465

Sequence | soluble fraction (log2)
HMVSAEQNTLEFIKENVKEDVIEDDIEFYKSLLEDWSVEVDNSSKLLDPGNNNSLLAVIAYSIENEL | -0.0399
HMVSDAWITGKVKSQLLADDVTPGMKIDVDTEDRIVSLKGTVPSLTARNEAIRIASHTKGVRTVDADELIV | 0.118
HMVSFAEQASDWLAHFDRLGDVGPDTTLTDLTARDAEFSAWVNEGIHHRVAFLETLAAWHRTER | -0.774
HMVSGLEILKIQVQDHPSDWRWALLLARTHYENGNREAAVRTLRPLQRLHPDRLEVMTLWALLA | -0.00253
HMVSGSPTVDILMQRGLEYQQQENLEAARDAFDRAINLKPDYAEAWNRRAVLFFNEGKYDEAIADLETAIT | 0.077
HMVSKEELANSIYENKTADELGNIVLRKGKYSGEMLRTIYVKDIGYLEWHSKQSYEYSNAVKWYLKKLE | -1.21
HMVSLEEIINDLTSRIQTAVKMRFSDFVQNRKERVGVIVSFLGMLELVKQGIIDIKQEGHFADIEMETA | -0.296
HMVSLSENQKIVLESLNTAMSARELMEILNLSDISHFRRNILNPLLLEGLIVRTKPDKPKSSKQKYIKANF | -1.15
HMVSPEVEMLRAAVETMSERQKQVYELHYLRGFNVKETAAILGMSSPTVTAHKKRIMEIIKKFFE | -1.22
HMVSPFQQQIADKVHNEIIAAKFNYDNATNENERLLAQLQAKKARELANQYGLDMSSYGADTTAERS | 0.235
HMVSSAEQQARDKESGMILVQEAGGPDKARALVEKMRQDIRNPALDGTRRQMLRGHVARIELALAELETG | 0.00436
HMVSVGDIFAGRIISNENGHLLLQLLDGSKISAQTVTDLKYNIGDVLNLEIIEEKQGLIFVRQT | -0.516
HMVSVLGRRIKELRLQNSMTQMQLAKKLGYKGNSLVAGWELGKNYPSVSSIKRLSEIFDTDLMKYVG | -1.65
HMVTDTGAIEKVIDEVIAANPKQVQEIADQRAAGHEKPKTLGWLVGQIMKASGGKVNPAAVNEILLKKLG | 0.149
HMVTFDEISQSLVRDVAARRSLSVQTLHAMVDRYNAGSSINAVANQYGIDRLKLREILIELGVHVAT | 0.159
HMVTLQEVKQYLRIDFEEEDPLLLSLLATAKQQVMNVGRMDEAQLSEHEDTARTAILYAVSYLYENRN | -1.85
HMVTPAQQARDTLLGALVGLARATTSEPKTDDTDVVLNAGLRLAAQPDAPEERLQRMLAIVQTEKHRV | 0.116
HMVTVNAFGKSGPEPAAMTKEALAKGADEVRVIVDSPTAAASVRDFLIGAGLRVQLQDDEGQLIVVGEKK | 0.215
HMVVDEQRIQTLVSAAEQNSSDPVPRVTLGNLYFDAEQFEEAVKWYEQALALDPRNVNVSTDLGVGYYY | -0.00895
HMVVKLTQEQDRFIKTFNDKSLAFYYISSWGWGSFLRNGIGGVYEGDKTPFTLDEKEKMLNAIINGYEVI | -1.82
HMVVKSPLEMAFDKFREMRKKIRKPMTERAEELIWKELSKLAGEDSDLKIEILEQSIRNGWQDVYAVK | -0.265
HMVVLPGEVVALKIIQTGSSKDQGVGYLEDGTMVVVDGAKNSIGKTIEIQISRSHQTVAGRMLFGIAMS | -1.24
